From article PMC11045668 (Nature chemical biology, 2023)

Biological target: the molecule itself
Test: SEC

B1: soluble transhydrogenase from E. coli (EcSTH), recombinant, with N-terminal Hisx6-tag and C-terminal FLAG-tag (enzyme, Escherichia coli, UniProt P27306 1-466, looked up)
chain: MPHSYDYDAIVIGSGPGGEGAAMGLVKQGARVAVIERYQNVGGGCTHWGTIPSKALRHAVSRIIEFNQNPLYSDHSRLLRSSFADILNHADNVINQQTRMRQGFYERNHCEILQGNARFVDEHTLALDCPDGSVETLTAEKFVIACGSRPYHPTDVDFTHPRIYDSDSILSMHHEPRHVLIYGAGVIGCEYASIFRGMDVKVDLINTRDRLLAFLDQEMSDSLSYHFWNSGVVIRHNEEYEKIEGCDDGVIMHLKSGKKLKADCLLYANGRTGNTDSLALQNIGLETDSRGQLKVNSMYQTAQPHVYAVGDVIGYPSLASAAYDQGRIAAQALVKGEATAHLIEDIPTGIYTIPEISSVGKTEQQLTAMKVPYEVGRAQFKHLARAQIVGMNVGTLKILFHRETKEILGIHCFGERAAEIIHIGQAIMEQKGGGNTIEYFVNTTFNYPTMAEAYRVAALNGLNRLF
**Q.** B1 was tested. Which “stoichiometry N” value did it give?
**A.** 12
